This experiment addresses T1, soluble human CD3ε chain (human, UniProt P07766 23-126, limits assumed).
T1 construct: the text says soluble human CD3ε chain; also called human CD3 epsilon chain
Description: SPR (Biacore).

T1 sequence (P07766 23-126 limits assumed): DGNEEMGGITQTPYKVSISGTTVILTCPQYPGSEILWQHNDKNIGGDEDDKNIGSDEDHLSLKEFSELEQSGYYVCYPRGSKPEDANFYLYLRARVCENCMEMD

B1: TR01H082-E22Hh/none-Hi-Kn010G3/L0263-k0 (antibody, human IgG1, kappa, L234A L235A, N297A)
heavy: QVQLVESGGGLVQPGRSLRLSCAASGFTFSNAWMHWVRQAPGKGLEWVAQIKDKSQNYATYYAESVKGRFTISRDDSKNSLYLQMNSLKTEDTAVYYCRYVHYAAGYGVDAWGQGTTVTVSSASTKGPSVFPLAPSSKSTSGGTAALGCLVKDYFPEPVTVSWNSGALTSGVHTFPAVLQSSGLYSLSSVVTVPSSSLGTQTYICNVNHKPSNTKVDKKVEPKSCDKTHTCPPCPAPEAAGGPSVFLFPPKPKDTLMISRTPEVTCVVVDVSHEDPEVKFNWYVDGVEVHNAKTKPREEQYASTYRVVSVLTVLHQDWLNGKEYKCKVSNKALPAPIEKTISKAKGQPREPQVYTLPPSRCELTKNQVSLSCAVKGFYPSDIAVEWESNGQPENNYKTTPPVLDSDGSFFLVSKLTVDKSRWQQGNVFSCSVMHEALHNHYTQKSLSLSPDYKDDDDK
chain: EPKSSDKTHTCPPCPAPELLGGPSVFLFPPKPKDTLMISRTPEVTCVVVDVSHEDPEVKFNWYVDGVEVHNAKTKPREEQYNSTYRVVSVLTVLHQDWLNGKEYKCKVSNKALPAPIEKTISKAKGQPREPQVCTLPPSRDELTKNQVSLWCLVKGFYPSDIAVEWESNGQPENNYKTTPPVLDSDGSFFLYSKLTVDKSRWQQGNVFSCSVMHEALHNRYTQKSLSLSP
light: DIVMTQSPLSLPVTPGEPASISCRSSQSPVHSNRNTYIHWYQQKPGQAPRLLIYKVSNRFSGVPDRFSGSGSGTDFTLKISRVEAEDVGVYYCAQGTQVPYTFGQGTKLEIKRTVAAPSVFIFPPSDEQLKSGTASVVCLLNNFYPREAKVQWKVDNALQSGNSQESVTEQDSKDSTYSLSSTLTLSKADYEKHKVYACEVTHQGLSSPVTKSFNRGEC
notes: single-arm
The Kd is a measure of binding affinity in units of concentration. Read a high Kd as weaker binding. B1: binding was put at a Kd of 30.9 nM.

B2: TR01H082-E22Hh/none-Hi-Kn010G3/L0267-k0 (antibody, human IgG1, kappa, L234A L235A, N297A)
heavy: QVQLVESGGGLVQPGRSLRLSCAASGFTFSNAWMHWVRQAPGKGLEWVAQIKDKSQNYATYYAESVKGRFTISRDDSKNSLYLQMNSLKTEDTAVYYCRYVHYAAGYGVDAWGQGTTVTVSSASTKGPSVFPLAPSSKSTSGGTAALGCLVKDYFPEPVTVSWNSGALTSGVHTFPAVLQSSGLYSLSSVVTVPSSSLGTQTYICNVNHKPSNTKVDKKVEPKSCDKTHTCPPCPAPEAAGGPSVFLFPPKPKDTLMISRTPEVTCVVVDVSHEDPEVKFNWYVDGVEVHNAKTKPREEQYASTYRVVSVLTVLHQDWLNGKEYKCKVSNKALPAPIEKTISKAKGQPREPQVYTLPPSRCELTKNQVSLSCAVKGFYPSDIAVEWESNGQPENNYKTTPPVLDSDGSFFLVSKLTVDKSRWQQGNVFSCSVMHEALHNHYTQKSLSLSPDYKDDDDK
chain: EPKSSDKTHTCPPCPAPELLGGPSVFLFPPKPKDTLMISRTPEVTCVVVDVSHEDPEVKFNWYVDGVEVHNAKTKPREEQYNSTYRVVSVLTVLHQDWLNGKEYKCKVSNKALPAPIEKTISKAKGQPREPQVCTLPPSRDELTKNQVSLWCLVKGFYPSDIAVEWESNGQPENNYKTTPPVLDSDGSFFLYSKLTVDKSRWQQGNVFSCSVMHEALHNRYTQKSLSLSP
light: DIVMTQSPLSLPVTPGEPASISCRPSQSPVHSNRNTYLHWYQQKPGQAPRLLIYKVSNRFSGVPDRFSGSGSGTDFTLKISRVEAEDVGVYYCVQGTQVPYTFGQGTKLEIKRTVAAPSVFIFPPSDEQLKSGTASVVCLLNNFYPREAKVQWKVDNALQSGNSQESVTEQDSKDSTYSLSSTLTLSKADYEKHKVYACEVTHQGLSSPVTKSFNRGEC
notes: single-arm
On to B2, for which the Kd is 22.9 nM.

B3: TR01H082-E22Hh/none-Hi-Kn010G3/L0264-k0 (antibody, human IgG1, kappa, L234A L235A, N297A)
heavy: QVQLVESGGGLVQPGRSLRLSCAASGFTFSNAWMHWVRQAPGKGLEWVAQIKDKSQNYATYYAESVKGRFTISRDDSKNSLYLQMNSLKTEDTAVYYCRYVHYAAGYGVDAWGQGTTVTVSSASTKGPSVFPLAPSSKSTSGGTAALGCLVKDYFPEPVTVSWNSGALTSGVHTFPAVLQSSGLYSLSSVVTVPSSSLGTQTYICNVNHKPSNTKVDKKVEPKSCDKTHTCPPCPAPEAAGGPSVFLFPPKPKDTLMISRTPEVTCVVVDVSHEDPEVKFNWYVDGVEVHNAKTKPREEQYASTYRVVSVLTVLHQDWLNGKEYKCKVSNKALPAPIEKTISKAKGQPREPQVYTLPPSRCELTKNQVSLSCAVKGFYPSDIAVEWESNGQPENNYKTTPPVLDSDGSFFLVSKLTVDKSRWQQGNVFSCSVMHEALHNHYTQKSLSLSPDYKDDDDK
chain: EPKSSDKTHTCPPCPAPELLGGPSVFLFPPKPKDTLMISRTPEVTCVVVDVSHEDPEVKFNWYVDGVEVHNAKTKPREEQYNSTYRVVSVLTVLHQDWLNGKEYKCKVSNKALPAPIEKTISKAKGQPREPQVCTLPPSRDELTKNQVSLWCLVKGFYPSDIAVEWESNGQPENNYKTTPPVLDSDGSFFLYSKLTVDKSRWQQGNVFSCSVMHEALHNRYTQKSLSLSP
light: DIVMTQSPLSLPVTPGEPASISCRPSQSPVHSNRNTYLHWYQQKPGQAPRLLIYKVSNRFSGVPDRFSGSGSGTDFTLKISRVEAEDVGVYYCAQGTQVPYTFGQGTKLEIKRTVAAPSVFIFPPSDEQLKSGTASVVCLLNNFYPREAKVQWKVDNALQSGNSQESVTEQDSKDSTYSLSSTLTLSKADYEKHKVYACEVTHQGLSSPVTKSFNRGEC
notes: single-arm
For B3, the Kd was found to be 34.4 nM.

B4: TR01H082-E22Hh/none-Hi-Kn010G3/L0266-k0 (antibody, human IgG1, kappa, L234A L235A, N297A)
heavy: QVQLVESGGGLVQPGRSLRLSCAASGFTFSNAWMHWVRQAPGKGLEWVAQIKDKSQNYATYYAESVKGRFTISRDDSKNSLYLQMNSLKTEDTAVYYCRYVHYAAGYGVDAWGQGTTVTVSSASTKGPSVFPLAPSSKSTSGGTAALGCLVKDYFPEPVTVSWNSGALTSGVHTFPAVLQSSGLYSLSSVVTVPSSSLGTQTYICNVNHKPSNTKVDKKVEPKSCDKTHTCPPCPAPEAAGGPSVFLFPPKPKDTLMISRTPEVTCVVVDVSHEDPEVKFNWYVDGVEVHNAKTKPREEQYASTYRVVSVLTVLHQDWLNGKEYKCKVSNKALPAPIEKTISKAKGQPREPQVYTLPPSRCELTKNQVSLSCAVKGFYPSDIAVEWESNGQPENNYKTTPPVLDSDGSFFLVSKLTVDKSRWQQGNVFSCSVMHEALHNHYTQKSLSLSPDYKDDDDK
chain: EPKSSDKTHTCPPCPAPELLGGPSVFLFPPKPKDTLMISRTPEVTCVVVDVSHEDPEVKFNWYVDGVEVHNAKTKPREEQYNSTYRVVSVLTVLHQDWLNGKEYKCKVSNKALPAPIEKTISKAKGQPREPQVCTLPPSRDELTKNQVSLWCLVKGFYPSDIAVEWESNGQPENNYKTTPPVLDSDGSFFLYSKLTVDKSRWQQGNVFSCSVMHEALHNRYTQKSLSLSP
light: DIVMTQSPLSLPVTPGEPASISCRSSQPPVHSNRNTYLHWYQQKPGQAPRLLIYKVSNRFSGVPDRFSGSGSGTDFTLKISRVEAEDVGVYYCVQGTQVPYTFGQGTKLEIKRTVAAPSVFIFPPSDEQLKSGTASVVCLLNNFYPREAKVQWKVDNALQSGNSQESVTEQDSKDSTYSLSSTLTLSKADYEKHKVYACEVTHQGLSSPVTKSFNRGEC
notes: single-arm
Turning to B4, the Kd stood at 22.9 nM.

For the origin of these results see patent publication US20210388110A1 (published 2021).
